Legend:
[1] = molecular target: ARHGAP30, Q7Z6I6-2
[2] = molecular target: ARHGAP30, Q7Z6I6-2; remark: listed apart in the source
[3] = molecular target: rhg31_mouse Arhgap31 (UniProt A6X8Z5)
Chain of rhg31_mouse Arhgap31 (A6X8Z5 whole entry): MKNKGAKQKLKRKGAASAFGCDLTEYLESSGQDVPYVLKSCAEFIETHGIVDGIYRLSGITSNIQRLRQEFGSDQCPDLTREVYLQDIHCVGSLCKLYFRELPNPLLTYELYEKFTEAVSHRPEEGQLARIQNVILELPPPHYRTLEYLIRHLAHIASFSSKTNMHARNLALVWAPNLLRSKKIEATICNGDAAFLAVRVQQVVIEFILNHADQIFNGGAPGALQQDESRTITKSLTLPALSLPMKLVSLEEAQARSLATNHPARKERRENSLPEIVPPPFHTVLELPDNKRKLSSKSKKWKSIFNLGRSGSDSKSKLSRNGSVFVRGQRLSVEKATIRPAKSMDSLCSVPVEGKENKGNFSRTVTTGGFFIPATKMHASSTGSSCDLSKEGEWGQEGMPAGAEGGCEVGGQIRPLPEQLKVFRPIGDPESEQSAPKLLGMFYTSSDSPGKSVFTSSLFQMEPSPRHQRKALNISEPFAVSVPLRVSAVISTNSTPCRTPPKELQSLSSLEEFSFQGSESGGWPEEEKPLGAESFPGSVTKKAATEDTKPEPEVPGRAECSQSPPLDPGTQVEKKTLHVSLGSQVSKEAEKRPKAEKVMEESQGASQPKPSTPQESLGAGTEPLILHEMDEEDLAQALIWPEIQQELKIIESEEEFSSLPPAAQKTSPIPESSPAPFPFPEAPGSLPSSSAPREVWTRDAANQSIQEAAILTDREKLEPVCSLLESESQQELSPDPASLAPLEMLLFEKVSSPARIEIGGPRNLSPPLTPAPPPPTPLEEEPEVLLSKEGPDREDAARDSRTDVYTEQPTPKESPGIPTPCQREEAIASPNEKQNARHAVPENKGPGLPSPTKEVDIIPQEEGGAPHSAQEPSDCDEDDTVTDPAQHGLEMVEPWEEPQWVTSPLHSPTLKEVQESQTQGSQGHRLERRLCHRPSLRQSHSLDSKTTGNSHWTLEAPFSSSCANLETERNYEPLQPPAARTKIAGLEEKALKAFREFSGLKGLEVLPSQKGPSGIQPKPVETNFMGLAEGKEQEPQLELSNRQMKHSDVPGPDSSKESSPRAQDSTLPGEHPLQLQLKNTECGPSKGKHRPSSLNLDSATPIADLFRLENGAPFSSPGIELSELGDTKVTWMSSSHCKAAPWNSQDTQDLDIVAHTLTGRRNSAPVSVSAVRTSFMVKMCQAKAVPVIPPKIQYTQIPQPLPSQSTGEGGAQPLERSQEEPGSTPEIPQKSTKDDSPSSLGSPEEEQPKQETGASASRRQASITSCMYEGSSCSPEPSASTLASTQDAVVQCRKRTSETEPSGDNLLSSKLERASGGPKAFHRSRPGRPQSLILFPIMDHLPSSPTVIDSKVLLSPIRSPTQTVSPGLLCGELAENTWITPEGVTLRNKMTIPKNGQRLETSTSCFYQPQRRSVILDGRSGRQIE

Chain of ARHGAP30, Q7Z6I6-2 (Q7Z6I6 other isoform, or with tags, fused parts or gaps): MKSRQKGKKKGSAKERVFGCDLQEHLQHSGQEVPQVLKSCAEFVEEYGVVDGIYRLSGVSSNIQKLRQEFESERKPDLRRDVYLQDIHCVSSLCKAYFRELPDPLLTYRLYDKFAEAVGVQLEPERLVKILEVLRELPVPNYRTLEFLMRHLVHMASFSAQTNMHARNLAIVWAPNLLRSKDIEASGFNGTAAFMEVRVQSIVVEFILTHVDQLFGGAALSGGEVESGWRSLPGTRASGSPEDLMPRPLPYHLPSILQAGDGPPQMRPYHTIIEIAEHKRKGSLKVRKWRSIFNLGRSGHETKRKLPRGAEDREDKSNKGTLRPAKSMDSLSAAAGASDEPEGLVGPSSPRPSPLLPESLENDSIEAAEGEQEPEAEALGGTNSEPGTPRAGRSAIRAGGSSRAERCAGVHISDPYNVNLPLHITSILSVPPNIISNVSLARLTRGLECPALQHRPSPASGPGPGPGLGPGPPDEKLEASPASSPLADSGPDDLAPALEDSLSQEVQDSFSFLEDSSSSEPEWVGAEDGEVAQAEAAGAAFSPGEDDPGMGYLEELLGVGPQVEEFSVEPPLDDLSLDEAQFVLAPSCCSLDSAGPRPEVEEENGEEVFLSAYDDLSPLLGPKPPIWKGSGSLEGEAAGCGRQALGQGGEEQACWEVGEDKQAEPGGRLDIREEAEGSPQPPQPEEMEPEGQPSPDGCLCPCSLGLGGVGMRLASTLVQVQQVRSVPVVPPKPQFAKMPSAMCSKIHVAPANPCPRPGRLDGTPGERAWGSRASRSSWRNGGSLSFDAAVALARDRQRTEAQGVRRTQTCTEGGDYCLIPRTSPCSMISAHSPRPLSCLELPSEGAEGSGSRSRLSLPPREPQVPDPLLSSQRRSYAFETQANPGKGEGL
Chain of Rho-related GTP-binding protein RhoU (Homo sapiens), Q7L0Q8 F86C (Q7L0Q8 whole entry F86C): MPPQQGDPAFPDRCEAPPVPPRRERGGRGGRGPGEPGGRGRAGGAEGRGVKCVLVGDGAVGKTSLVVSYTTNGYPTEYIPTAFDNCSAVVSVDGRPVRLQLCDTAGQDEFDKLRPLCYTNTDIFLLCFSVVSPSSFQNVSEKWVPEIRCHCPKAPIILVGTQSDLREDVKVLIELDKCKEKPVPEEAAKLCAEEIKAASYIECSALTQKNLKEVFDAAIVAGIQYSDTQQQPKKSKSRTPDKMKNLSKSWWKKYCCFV

Substance	effect of a mutation on the interaction [1]	effect of a mutation on the interaction [2]	effect of a mutation on the interaction [3]
Rho-related GTP-binding protein RhoU (Homo sapiens), Q7L0Q8 F83G	disrupting interaction strength	decreasing interaction strength	
Rho-related GTP-binding protein RhoU (Homo sapiens), Q7L0Q8 F86C	with no effect		
Rho-related GTP-binding protein RhoU (Homo sapiens), Q7L0Q8 P80G	with no effect		
Rho-related GTP-binding protein RhoU (Homo sapiens), Q7L0Q8 Q107L	with no effect		with no effect
Rho-related GTP-binding protein RhoU (Homo sapiens), Q7L0Q8 T63N	with no effect		disrupting interaction strength

— IntAct's records for PubMed 21565175
